Measured values: the supplement of paper PMC11246515
± gives the standard deviation of the averaged measurements.

Assay: total protein half-life in vivo (active degradation + dilution); higher = more stable protein
[1] = E. coli NCM3722 delta-clpP delta-lon delta-hslV, growth: N-lim chemostat, doubling time 6 h
[2] = E. coli NCM3722 delta-clpP, growth: N-lim chemostat, doubling time 6 h
[3] = E. coli NCM3722 delta-hslV, growth: N-lim chemostat, doubling time 6 h
[4] = E. coli NCM3722 delta-lon, growth: N-lim chemostat, doubling time 6 h
[5] = E. coli NCM3722 delta-smpB, growth: N-lim chemostat, doubling time 6 h
[6] = wild type E. coli NCM3722, growth: C-lim chemostat, doubling time 3 h
[7] = wild type E. coli NCM3722, growth: C-lim chemostat, doubling time 6 h
[8] = wild type E. coli NCM3722, growth: C-lim chemostat, doubling time 12 h
[9] = wild type E. coli NCM3722, growth: N-lim chemostat, doubling time 6 h
[10] = wild type E. coli NCM3722, growth: N-lim chemostat, doubling time 12 h
[11] = wild type E. coli NCM3722, growth: P-lim chemostat, doubling time 6 h
[12] = wild type E. coli NCM3722, growth: P-lim chemostat, doubling time 12 h

Sequence	total protein half-life in vivo [1] [h]	total protein half-life in vivo [2] [h]	total protein half-life in vivo [3] [h]	total protein half-life in vivo [4] [h]	total protein half-life in vivo [5] [h]	total protein half-life in vivo [6] [h]	total protein half-life in vivo [7] [h]	total protein half-life in vivo [8] [h]	total protein half-life in vivo [9] [h]	total protein half-life in vivo [10] [h]	total protein half-life in vivo [11] [h]	total protein half-life in vivo [12] [h]
MVKVYAPASSANMSVGFDVLGAAVTPVDGALLGDVVTVEAAETFSLNNLGRFADKLPSEPRENIVYQCWERFCQELGKQIPVAMTLEKNMPIGSGLGSSACSVVAALMAMNEHCGKPLNDTRLLALMGELEGRISGSIHYDNVAPCFLGGMQLMIEENDIISQQVPGFDEWLWVLAYPGIKVSTAEARAILPAQYRRQDCIAHGRHLAGFIHACYSRQPELAAKLMKDVIAEPYRERLLPGFRQARQAVAEIGAVASGISGSGPTLFALCDKPETAQRVADWLGKNYLQNQEGFVHICRLDTAGARVLEN	5.55 ± 0.88	3.7 ± 0.34	4.29 ± 0.69	5.16 ± 0.65	4.35 ± 0.11	2.73 ± 0.61	5.63 ± 0.58	8.58 ± 0.091	4.31 ± 0.33	6.8 ± 0.37	6.04 ± 0.13	12.6 ± 0.79
MVLMIVSGRSGSGKSVALRALEDMGFYCVDNLPVVLLPDLARTLADREISAAVSIDVRNMPESPEIFEQAMSNLPDAFSPQLLFLDADRNTLIRRYSDTRRLHPLSSKNLSLESAIDKESDLLEPLRSRADLIVDTSEMSVHELAEMLRTRLLGKRERELTMVFESFGFKHGIPIDADYVFDVRFLPNPHWDPKLRPMTGLDKPVAAFLDRHTEVHNFIYQTRSYLELWLPMLETNNRSYLTVAIGCTGGKHRSVYIAEQLADYFRSRGKNVQSRHRTLEKRKP [P0A894]	5.6 ± 1.1	4.58 ± 0.2	4.92 ± 0.47	5.04 ± 0.64	4.453 ± 0.016	3.02 ± 0.095	6.62 ± 1.3	11.5 ± 0.81	4.48 ± 0.31	7.88 ± 1.8	5.95 ± 0.11	12.1 ± 0.55
MVPVVALVGRPNVGKSTLFNRLTRTRDALVADFPGLTRDRKYGRAEIEGREFICIDTGGIDGTEDGVETRMAEQSLLAIEEADVVLFMVDARAGLMPADEAIAKHLRSREKPTFLVANKTDGLDPDQAVVDFYSLGLGEIYPIAASHGRGVLSLLEHVLLPWMEDLAPQEEVDEDAEYWAQFEAEENGEEEEEDDFDPQSLPIKLAIVGRPNVGKSTLTNRILGEERVVVYDMPGTTRDSIYIPMERDGREYVLIDTAGVRKRGKITDAVEKFSVIKTLQAIEDANVVMLVIDAREGISDQDLSLLGFILNSGRSLVIVVNKWDGLSQEVKEQVKETLDFRLGFIDFARVHFISALHGSGVGNLFESVREAYDSSTRRVGTSMLTRIMTMAVEDHQPPLVRGRRVKLKYAHAGGYNPPIVVIHGNQVKDLPDSYKRYLMNYFRKSLDVMGSPIRIQFKEGENPYANKRNTLTPTQMRKRKRLMKHIKKNK [P0A6P5]	5.18 ± 0.36	5.53 ± 0.68	4.51 ± 0.067	4.88 ± 0.11	4.59 ± 0.29	3.2 ± 0.2	5.55 ± 0.11	10.3 ± 0.65	4.6 ± 0.16	7.38 ± 0.25	5.43 ± 0.67	10.8 ± 0.39
MVRKGCNSLVRAEKILTHIAWVGMASYMELLNKFQYPKSSLLNLLNVMVDCGFLIKNKNGYYSLGIKNYELGCQALHRQNIFEVTKRPMQELSLKSGLVCHLGAMESISAIYLDKIESPDSVPTSKSWIGKKLELHITALGKALLAWKTREELDYFLEALTLTPHTRNTFTDKKLFLEELQKTRLRGWAIDNEESTYGAVCLSMPVFNMYNRVNYAISLSGDPVVYSGNKIDSYLELLRKCAEQISYGLGYRNENEHLRKGN						1.15	1.6 ± 0.092	2.7 ± 0.086		3.16		
MVSETKTTEAPGLRRELKARHLTMIAIGGSIGTGLFVASGATISQAGPGGALLSYMLIGLMVYFLMTSLGELAAYMPVSGSFATYGQNYVEEGFGFALGWNYWYNWAVTIAVDLVAAQLVMSWWFPDTPGWIWSALFLGVIFLLNYISVRGFGEAEYWFSLIKVTTVIVFIIVGVLMIIGIFKGAQPAGWSNWTIGEAPFAGGFAAMIGVAMIVGFSFQGTELIGIAAGESEDPAKNIPRAVRQVFWRILLFYVFAILIISLIIPYTDPSLLRNDVKDISVSPFTLVFQHAGLLSAAAVMNAVILTAVLSAGNSGMYASTRMLYTLACDGKAPRIFAKLSRGGVPRNALYATTVIAGLCFLTSMFGNQTVYLWLLNTSGMTGFIAWLGIAISHYRFRRGYVLQGHDINDLPYRSGFFPLGPIFAFILCLIITLGQNYEAFLKDTIDWGGVAATYIGIPLFLIIWFGYKLIKGTHFVRYSEMKFPQNDKK		> 8		5.36	6.44		> 8	> 16	6.92		6.22	8.87
MVSRRVQALLDQLRAQGIQDEQVLNALAAVPREKFVDEAFEQKAWDNIALPIGQGQTISQPYMVARMTELLELTPQSRVLEIGTGSGYQTAILAHLVQHVCSVERIKGLQWQARRRLKNLDLHNVSTRHGDGWQGWQARAPFDAIIVTAAPPEIPTALMTQLDEGGILVLPVGEEHQYLKRVRRRGGEFIIDTVEAVRFVPLVKGELA [P0A7A5]	5.04 ± 0.19	3.95 ± 0.35	4.65 ± 0.94	4.71 ± 0.85	3.64 ± 0.14	2.7898 ± 0.0014	4.83 ± 2.6	8.88 ± 0.65	3.85 ± 0.078	6.43 ± 0.091	5.57 ± 0.56	10.2 ± 0.73
MVSRYVPDMGDLIWVDFDPTKGSEQAGHRPAVVLSPFMYNNKTGMCLCVPCTTQSKGYPFEVVLSGQERDGVALADQVKSIAWRARGATKKGTVAPEELQLIKAKINVLIG [P0AE70]	6.61 ± 0.43		6.264 ± 0.046	6.6 ± 0.43	5.59 ± 0.098	3.16 ± 0.28	5.35 ± 0.39		4.02 ± 0.46	9.87 ± 1.7	6.19	11 ± 0.37
MVTINTESALTPRSLRDTRRMNMFVSVAAAVAGLLFGLDIGVIAGALPFITDHFVLTSRLQEWVVSSMMLGAAIGALFNGWLSFRLGRKYSLMAGAILFVLGSIGSAFATSVEMLIAARVVLGIAVGIASYTAPLYLSEMASENVRGKMISMYQLMVTLGIVLAFLSDTAFSYSGNWRAMLGVLALPAVLLIILVVFLPNSPRWLAEKGRHIEAEEVLRMLRDTSEKAREELNEIRESLKLKQGGWALFKINRNVRRAVFLGMLLQAMQQFTGMNIIMYYAPRIFKMAGFTTTEQQMIATLVVGLTFMFATFIAVFTVDKAGRKPALKIGFSVMALGTLVLGYCLMQFDNGTASSGLSWLSVGMTMMCIAGYAMSAAPVVWILCSEIQPLKCRDFGITCSTTTNWVSNMIIGATFLTLLDSIGAAGTFWLYTALNIAFVGITFWLIPETKNVTLEHIERKLMAGEKLRNIGV [P0AE24]										9.72		
MWIGIISLFPEMFRAITDYGVTGRAVKNGLLSIQSWSPRDFTHDRHRTVDDRPYGGGPGMLMMVQPLRDAIHAAKAAAGEGAKVIYLSPQGRKLDQAGVSELATNQKLILVCGRYEGIDERVIQTEIDEEWSIGDYVLSGGELPAMTLIDSVSRFIPGVLGHEASATEDSFAEGLLDCPHYTRPEVLEGMEVPPVLLSGNHAEIRRWRLKQSLGRTWLRRPELLENLALTEEQARLLAEFKTEHAQQQHKHDGMA [P0A873]	4.44 ± 1.1	4.01 ± 0.084	4.21 ± 0.043	4.7 ± 0.54	4.21 ± 0.33	3.04 ± 0.49	5.88 ± 0.59	8.46 ± 1.3	4.25 ± 0.34	7.45 ± 0.68	5.85 ± 0.19	10.4 ± 0.29
MWLLDQWAERHIAEAQAKGEFDNLAGSGEPLILDDDSHVPPELRAGYRLLKNAGCLPPELEQRREAIQLLDILKGIRHDDPQYQEVSRRLSLLELKLRQAGLSTDFLRGDYADKLLDKINDN			6.32			3.06			5.56	12.3	6.15	
